Experimental data: patent US20150266956A1 (UNIVERSITY OF ROCHESTER, published 2015)

Molecular target: T1, murine DC-STAMP (dendritic cell-specific transmembrane protein) (mouse, UniProt Q7TNJ0 1-470)
T1 construct: whole, on cells; Endogenous protein; In the immunoprecipitation and immunoblot it came from cell lysates (about 50 kDa reduced, about 100 kDa non-reduced); also called mouse DC-STAMP
T1 sequence (looked up): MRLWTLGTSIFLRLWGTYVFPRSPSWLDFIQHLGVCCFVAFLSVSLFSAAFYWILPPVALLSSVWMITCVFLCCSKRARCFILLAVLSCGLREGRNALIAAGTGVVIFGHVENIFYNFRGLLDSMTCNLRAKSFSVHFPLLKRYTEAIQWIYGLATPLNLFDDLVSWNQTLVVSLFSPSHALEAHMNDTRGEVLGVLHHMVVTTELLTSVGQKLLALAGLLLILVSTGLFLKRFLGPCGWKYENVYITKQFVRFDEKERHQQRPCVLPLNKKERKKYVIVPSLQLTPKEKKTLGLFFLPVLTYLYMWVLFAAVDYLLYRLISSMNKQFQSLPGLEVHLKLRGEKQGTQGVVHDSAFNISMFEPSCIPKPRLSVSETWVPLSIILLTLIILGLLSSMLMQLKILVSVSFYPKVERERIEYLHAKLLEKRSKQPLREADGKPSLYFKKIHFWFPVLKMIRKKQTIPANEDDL
Assay: immunoprecipitation and immunoblot of RANKL-treated CD11b+ RAW 264.7 cell lysate (FIG. 1A)
Protocol: After immunoprecipitation with the 1A2 mAb, immunoblotting was performed with either the 1A2 mAb, the KR104 rabbit polyclonal antibody (positive control), or an anti-mouse IgG antibody (negative control) under non-reducing (nr: −β-mercaptoethanol) or reducing (r: +β-mercaptoethanol) conditions. M: protein marker, black and white scanned overlay. Blot is representative of 4 separate trials. […] Numbers below bands represent densitometry values used as a semiquantitative measure of relative protein level. Blot is representative of 2 separate trials.
To study surface protein expression, a mAb was generated against a peptide in the fourth extracellular domain of DC-STAMP. For comparison, a polyclonal DC-STAMP antibody was used that has histologically shown surface expression on OC (Kukita et al., J. Exp. Med. 200:941-6 (2004)). CD11b+ cells were cultured for 2 days with RANKL and extracted membrane fraction proteins for immunoprecipitation with the 1A2 mAb. […] Both antibodies also recognize a protein at double the molecular weight (˜100 kDa) under non-reducing (nr) conditions. In both reducing and non-reducing conditions, the 1A2 DC-STAMP mAb has a more intense band for the same amount of protein loaded in each lane. […] The 1A2 mAb clone was conjugated to FITC and used to determine if surface membrane DC-STAMP on CD11b+ cells could be detected by flow cytometry.

binding result: binds
B1: DC-STAMP monoclonal antibody 1A2 (antibody, V domains shown)
VH: QVTLKESGPGILQPSQTLSLTCSFSGFSLSTFGMGVGWIRQPSGKGLEWLAHIWWDDDKYYSPALKSRLTISKDTSKNQVFLKIANVDTADTATYYCVRIGSRSPFAYWGPGTLVTVSS
VL: DIVMTQAAFSNPVTLGTSASISCRSSKSLLHSNGITYLYWYLQKPGQSPQVLIYQMSNLASGVPDRFSSSGSGTDFTLRISRVEAEDVGVYYCAQNLELPWTFGGGTKLEIKR
notes: The antibody was FITC-conjugated for flow cytometry and immunofluorescence; also called 1A2 mAb; clone 1A2
